According to the nanobody polyreactivity screen of Harvey et al. (2022):

Assay: yeast display, Sf9 membrane polyspecificity reagent, FACS + sequencing; frameworks hold sequencing errors
How it was run: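 A nanobody's polyreactivity label depends on the gate it was sorted from. Yeast display cells were stained with 10% biotinylated, detergent-solubilized Sf9 membrane reagent for 1 hour at 4 °C, enriched on streptavidin microbeads and sorted by FACS. The low and high (top ~1%) gates were set on anti-HA fluorescence for expression and streptavidin fluorescence for reagent binding.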

| Sequence | polyreactivity (PSR sort gate) |
| --- | --- |
| QVQLVESGGGLVQAGGSLRLSCPAYGSTFGEYAMGWYRQKPGKERELVATITSAGSTYYADSVKGRFTISRDNAKNTVYLLMNSLKPEDTAVYYCAVDPISQGHMDYWGQGTQVTVSS | low polyreactivity |
| QVQLVESGGGLVQAGGSLRLSCSASGFIFWYNAMGWYRQAPGKERELVAAITTAGSTNYADSVKGRFTISRDNAKNTVYLQMNSLKPEDTAVFYCNKVQLRNRYPYRYGFGDVGYWGQGTQVTVSS | low polyreactivity |
| QVQLVESGGGLVQAGGSLRLSCSASGFTFFYYAMGWYRQAPGKERELVASISSGGSSTYYADSVKGRFTISRDNAKNTVYLQMNSLKPEDTAVYYFAATSRYRGSWYYYWGQGTQVTVSS | high polyreactivity |
| QVQLVESGGGLVQAGGSLRLSCSASGFTFRVNALGWYRQAPGKERELVAAITYSGGSTYYADSVKGRFTISRDNAKNTVYLQMNSLNPEDTAVYYCAAGYFFPRLRFRNYAYGYWGQGTQVTVST | high polyreactivity |
| QVQLVESGGGLVQAGGSLRLSCSASGFTFRWYTMGWYTQSPGNERELVAAINYSGGSTYYADSVKGRFTISRDNAKNTVYLQMNSLKPEDTAVYYCAAQIYFPGRRYDYWGQGTQVTVSS | high polyreactivity |
| QVQLVESGGGLVQAGGSLRLSCSASGFTSRKNAMGWYRQAPGKERELVAAITQSSGRTYYADSVKGRFTISRDNAKNTVYLQMNSLKPEDTAVYYCAARRGGEDDYWGQGTQVTVSS | low polyreactivity |
| QVQLVESGGGLVQAGGSLRLSCSASGIIFDSYVMGWYRQAPGKERELVAAISFRGGSTYYADSVKGRFTISRDNAKNTVYLQMNSLKPEDTAVYYCAAEGRGYTEYYWGQGTQVTVSS | high polyreactivity |
| QVQLVESGGGLVQAGGSLRLSCSASGIIFGGNAMGWYRQAPGKERELVAGISSRGGSTYYADSVKGRFTISRDNAKNTVYLQMNSLKPEDTAVYYCAAVSSRRPGYEYYYWGQGTQVTVSS | high polyreactivity |
| QVQLVESGGGLVQAGGSLRLSCSASGITFIYYMGWYIQAPGKERELVAAITWSGGSTYYADSVKGRFTISRDNAKNTVYLQMNSLKPEDTAVYYCAAVRRAEEYDYCGQGTQVTVSS | low polyreactivity |
| QVQLVESGGGLVQAGGSLRLSCSASGRIFSANAMGWYRQAPVKERELVATISTGGGRTYYADSVKGRFTISRDNAKNTVYLQMNSLKPEDTAVYYCNATRNYARVRYYYWGQGNQVTVSS | high polyreactivity |
| QVQLVESGGGLVQAGGSLRLSCSASGRIFSPYAMGWYRQAPGKERELVAAISWRGSSTYYADSVKGRFTISPDNAKNTVYLQMNSLKPEDTAVYYCAAPSSKYWGQGTQVTVSS | low polyreactivity |
| QVQLVESGGGLVQAGGSLRLSCSASGRIFSTYAMGWYRQAPGKERELVAAINKIGGSTYYADSVKGRFTISRDNAKNTVYLQMNSLKPEDTAVYYCAADAPYYPVRRYYYWGQGTQVTVSS | low polyreactivity |
| QVQLVESGGGLVQAGGSLRLSCSASGRILYSYSMGWYRQAPGKEREFVAAIRRSGGSTYYADSVKGRFTISRDNAKNTVYLQMNSLKPEDTAVYYCAAGRRYSGSYDYWGQGTQVTVSS | high polyreactivity |
| QVQLVESGGGLVQAGGSLRLSCSASGRTFANYAMGWYRQAPGKERELVAAISSGGNTYYADSVKGRCTISRDNAKNTVYLQMNSLKPEDTAVYYCAAQPYYYFDEYTQYDYWGQGTQVTVSS | high polyreactivity |
| QVQLVESGGGLVQAGGSLRLSCSASGRTFATNAMGWYRQAPGKERELVAAISGSGGRTYYADSVKGRFTISRDIAKNTVYLQMNSLKPEDTAVYYCAAQKVPYRATNYYYWGQGTQVTVSS | high polyreactivity |
| QVQLVESGGGLVQAGGSLRLSCSASGRTFDVYAMGWYRQAPGKERELVATIRSDGSTTYADSVKGRFTISRDNAKNTVYLQMNSLKPEDTAVYFCAADFRSGFSSSTTPVQSDWGQGTQVTVSS | low polyreactivity |
| QVQLVESGGGLVQAGGSLRLSCSASGRTFGYNAMGRYRQEPGKERELVAAINWSGASTYYADSVKGRFTISRDNAKNTVYLQMNSLKPEDTAVYYCAADYSYIYGFDYWGQGTQVTVSS | low polyreactivity |
